Results on two substances are retold here after paper PMC4209464.

The target of test [1] is Pyrococcus furiosus Chaperonin 60 with Ile138, with the last 22 amino acids deleted (PfCD) (Pyrococcus furiosus). Kind of test: SEC. Background: SEC sorts molecules by how far they enter the pores of the column.
For test [2] the target is unchanged. Briefly: native gel or EMSA.
The target in test [3] is PfCD mutant Ile138His (Pyrococcus furiosus). Kind of test: native gel or EMSA. Background: In EMSA bound probe runs differently from free probe, usually more slowly.

With “Pyrococcus furiosus Chaperonin 60 with Ile138, with the last 22 amino acids deleted (PfCD) (domain or fragment)”, the stoichiometry N in test [1] and in test [2] was 16 each time. “PfCD mutant Ile138His (domain or fragment)” yielded a stoichiometry N in test [3] of 16.

As a reminder, the stoichiometry N is the number of molecules, sites or subunits per partner or assembly.
